Results: the supplement of paper PMC12042874
± gives the uncertainty stated by the source.

Experiment: amyloid nucleation score (Sup35N fusion, yeast selection) (log enrichment); library NNK3; higher = more nucleation; inactive = no reads after selection
Summary of the method: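 Plasmid inserts were Illumina-sequenced at input and output from psi-negative yeast expressing Sup35N fused to peptides of 20 random codons. The yeast were induced with 100 μM copper sulfate for 24 hours and grown 7 days at 30°C on medium lacking adenine and uracil, and sequences with under 100 input reads were excluded. Nucleation score is the DiMSum log enrichment of output over input reads, centred on the mode score of non-aggregating sequences.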

Substance | amyloid nucleation score
TQLFGGFPTEGQMMYPPRSS | inactive
EDLSVNNSAYVFPSLE | inactive
RTFWNSYWTGMVLRADWIMR | inactive
WDDEFVWSGINN | inactive
ILFGGRNGKWLVEPGLSRVL | 0.84 ± 0.23
MFLLMNKV | inactive
GLCSFR | inactive
SKSARVLSFYYPYFFISINL | inactive
DRQRWSRLCAGQSLYNCGKC | inactive
RILHFTICPNQWTRYKVDS | inactive
YAVCSSLKYLIVESSKLTSV | 0.038 ± 0.36
TVVKPNRLAYHSQLFCKAHT | inactive
NFMGVYLVWNFIVVFKVHYV | inactive
RCCLNTVPSAFTGYKNPTVK | inactive
SVGKWMYRPSEYGACCASGY | inactive
RRNHMEFWTCSKYPRGLCGI | inactive
PFGSSTRFIHVFYGAWGHSK | inactive
IETGSKYVAVRARLQSVMDG | inactive
INVTLCCTMYD | 3.02 ± 0.053
IISQIRCFNLPEVPSSTMCL | inactive
TYTVYLRRYAYYECTFRQFL | inactive
ILASKALQQLLQGLTLV | -0.375 ± 0.98
ATRTNYCACPLLMARWMSVL | inactive

Substance | amyloid nucleation score
WMFSRL | inactive
AAGRGWTGEALMHRNAQCDS | 0.244 ± 0.87
DKDMNEQVS | inactive
YFGGRM | inactive
WRFRIVR | inactive
HILWHTSSSGELLPMSP | inactive
FRWHLCRFCWKRIFASTMLA | inactive
ITGHRNVLIEHMVTTP | inactive
FCRPLSCRSIWCHLLPTHLR | inactive
ANNPLLG | inactive
LRLGRTVLYPIVLWLPYCFD | inactive
FFAECCRGNKCYMRSKDDQS | inactive
TSQTLESQDLIFSGCHSGWL | inactive
RGYSANWNLMVAVTCGTIH | -0.422 ± 0.71
KISGNFKILDWVGNFSDGNS | inactive
LFSICINICLY | 1.79 ± 0.092
LFNYVSMPANSSSRYTGMLL | inactive
RMRKSFLFVWIDFILKR | inactive
SVERCVIRFCYLQGLYMAAF | inactive
VLKKGYNKRYVGECIANCTV | inactive
IHCYCS | inactive
SYNHEKLK | inactive
TLLFFCLEQTFNWFIMIQ | inactive

Substance | amyloid nucleation score
CNNLFFSWLKFMLIGIMGH | inactive
LRRYALLVNAAQKEMRYSSS | -0.616 ± 1.1
SKTHRSVFMMAVIELKPTNS | inactive
EIGFYCPSGAGGHRKDRVLR | inactive
APLMTYMVMTFMWDSKELPD | inactive
KWFMVA | inactive
VNGLLAIRVYCKHWP | inactive
LSCNDYNDG | inactive
CMIFGVSLAYVCGCSLYGVG | inactive
NPMGWGQLTGCFHYVAMFCS | inactive
DRFSYFAIFPWYRMCYGMLE | inactive
KKISAQESEFVGSPFEYGGG | inactive
CWEFYVVLYRLLGICKIRVL | inactive
ETLWVKVYLTYLNMTRMSGY | inactive
HSAVE | inactive
MHANLLGVQSVLLDRVEVMW | inactive
SMSMDAYPQPPLNAMVLVSH | inactive
ETNEGPH | inactive
VYNRRYKSNRNIYSHGNRLK | 1.54 ± 0.1
QSTGCLYSYLLANVGKSSGK | inactive
FLLVMYT | 0.167 ± 0.25
YFRYRSDVIAYISVIIGNLV | inactive
IHVDLYN | inactive

Substance | amyloid nucleation score
SMLLVGTPDIIGDS | inactive
SKIFVNIDYVKVFRMICEWR | inactive
GNLASICVRLCWLCARLWST | inactive
SKESCRCLSWCGPEPRSCIA | inactive
KIQRYNILSGTCVFI | 1.51 ± 0.089
DKGQRVNSSGRVCNMNMGYW | inactive
SVFDKGESGRRYGGEV | inactive
KHVNLWSVGWFLGFLVWSRA | inactive
LEREDGVHWLMEEWVWCVDW | inactive
RMTVKQMLYHDWCTVRPSYC | inactive
HYSAREWLLLCIMVCDVVVW | inactive
EYDSYSKIYWHISLAVFILI | inactive
DVALCKYFGLNTIVNSFLAM | 1.42 ± 0.081
LGDYSLTE | inactive
FWWVKC | inactive
CFCFLIM | 1.05 ± 0.21
NICLKNSVS | inactive
RLWWS | -0.186 ± 0.98
SLMPMNYYGVTINVRWSLIQ | 0.554 ± 0.45
LKGVYSERPNRDAG | inactive
VLIYRRGFNYLRVLCCTTGF | inactive
ETYFAQWLNFL | inactive
CKIGYPTYNVGVIVSLVVRM | 1.61 ± 0.066

Substance | amyloid nucleation score
SITFGFESFDVVLGNM | inactive
GVYYSCAFSTLIKGVNRSTV | inactive
NYFQFCCGLETVNNYYRKCE | 1.76 ± 0.066
FSLRNICSGLWILSVIAFPI | inactive
SVASRTSEGTGYSCIIRVFH | inactive
STDQSASRVSERQLLCLPLT | inactive
CVSGDCVMIMFYLFSPVAVV | inactive
IDISIL | inactive
IENQSRCLLTNVATVN | inactive
CRVSGMDICLWSMMCDSVGS | inactive
SLHYEHLAGMTCRLVLEYLI | inactive
LDAYLWNNCMYVYHLEPYSW | inactive
VWCRQITMMACMSVR | inactive
LTHPCLMPFMLVVTRLYMAA | -1.03 ± 1.8
LRGTMGEV | inactive
GKLSNH | inactive
LPCPACKVLNDKNSSKCENY | inactive
SMHRQVPFPMKKHLEHLSMT | inactive
NYYNQT | inactive
LSIYGDPAYCALFAYECLWL | 1.93 ± 0.06
GIRVSLGVSFRECFNNSVSR | 2.43 ± 0.053
GVSVMSGQAMYVRKRSALEM | inactive
SWCVDTSIQFPKAFNIVCGF | inactive

Substance | amyloid nucleation score
YHLFLDVVFFHSTKDESRKN | 0.187 ± 0.6
FNISIRVDIVISICNNVVFN | 0.596 ± 0.19
LCKCLLIEFCYVVK | 0.772 ± 0.12
VFMNKGQRV | inactive
LNFCFHYCI | 1.54 ± 0.12
PGLLLNRMLDARFM | inactive
KCGIQLICMWFS | 1.47 ± 0.14
NNVTSIN | -0.821 ± 1.1
LNRAPTAQLSGDCRVGVQAT | inactive
RRFKQCNHILACR | inactive
KTYPTLCILCVDMLLRKRGV | inactive
VFDPGLSNCWRVTGWNED | inactive
MNGNGRFLVERRMLGSKKSV | inactive
PRDYMINNLLVFQSRG | inactive
IWVENQFDRRFLGVSMF | inactive
NALILAT | inactive
NVSPIGQISVNYGRMDCSEG | inactive
GERTVLVKGLMRCIWVPVIW | inactive
VGERLANQIGTYCDDQWWTW | inactive
RMPAFLCGYC | inactive
LWWCTLYSILYGTLSTYSCS | inactive
SRSVMIPVNS | -0.038 ± 0.75
GTGTRSHTLA | inactive

Substance | amyloid nucleation score
IATCTRFIDYVYRDVSSGPC | 0.725 ± 0.11
YRFLHSEVEVAHFWLWCSSS | inactive
VIFISILPLRKCSDKWEDNN | inactive
SFRGTSARYFMLVGVLGIFV | -0.2 ± 1.2
SNASIYRSFWWGKYSRA | -0.619 ± 0.82
RNLLRSTLKGYFWYSCNVDV | inactive
LVIVFCMVFLTFIF | 0.545 ± 0.13
MSEKASSEVKINRDAGLGAF | inactive
YQICGCSCLSYLPFLTSSIF | inactive
IRNFPRDLEFLPFWHSILSL | inactive
ILQVFKIMFKRRGLSFHLGI | inactive
YAHLWKNSEAGWSGKYSILW | inactive
CEYAYFGMDYLLEAGSKSDY | inactive
HFNEEGAQ | -0.309 ± 1.1
LIQPKSR | inactive
NDYGDGVSHLMGTGTPTSLW | inactive
TCSYNSGKYNFE | inactive
VSLMMCVVPFMPVLQHMSNA | 0.793 ± 0.16
VCLCNQVRLTM | inactive
RECDFFLWAYYLVNIQLRVQ | -0.27 ± 0.66
FSCPDLGRGYVIS | inactive
PRRSERYFCFF | 0.443 ± 0.23
